Assay results from PMC10447535.

Key:
[1] = cycloheximide chase immunoblot, MKN28; conditions: glycan lost; control: KIAA1324 WT
[2] = immunofluorescence, cell surface level, MKN28; conditions: glycan lost; control: KIAA1324 WT

B1: KIAA1324 (ELAPOR1, inceptor): 3NQ (protein)
parent chain: MAEPGHSHHLSARVRGRTERRIPRLWRLLLWAGTAFQVTQGTGPELHACKESEYHYEYTACDSTGSRWRVAVPHTPGLCTSLPDPIKGTECSFSCNAGEFLDMKDQSCKPCAEGRYSLGTGIRFDEWDELPHGFASLSANMELDDSAAESTGNCTSSKWVPRGDYIASNTDECTATLMYAVNLKQSGTVNFEYYYPDSSIIFEFFVQNDQCQPNADDSRWMKTTEKGWEFHSVELNRGNNVLYWRTTAFSVWTKVPKPVLVRNIAITGVAYTSECFPCKPGTYADKQGSSFCKLCPANSYSNKGETSCHQCDPDKYSEKGSSSCNVRPACTDKDYFYTHTACDANGETQLMYKWAKPKICSEDLEGAVKLPASGVKTHCPPCNPGFFKTNNSTCQPCPYGSYSNGSDCTRCPAGTEPAVGFEYKWWNTLPTNMETTVLSGINFEYKGMTGWEVAGDHIYTAAGASDNDFMILTLVVPGFRPPQSVMADTENKEVARITFVFETLCSVNCELYFMVGVNSRTNTPVETWKGSKGKQSYTYIIEENTTTSFTWAFQRTTFHEASRKYTNDVAKIYSINVTNVMNGVASYCRPCALEASDVGSSCTSCPAGYYIDRDSGTCHSCPTNTILKAHQPYGVQACVPCGPGTKNNKIHSLCYNDCTFSRNTPTRTFNYNFSALANTVTLAGGPSFTSKGLKYFHHFTLSLCGNQGRKMSVCTDNVTDLRIPEGESGFSKSITAYVCQAVIIPPEVTGYKAGVSSQPVSLADRLIGVTTDMTLDGITSPAELFHLESLGIPDVIFFYRSNDVTQSCSSGRSTTIRVRCSPQKTVPGSLLLPGTCSDGTCDGCNFHFLWESAAACPLCSVADYHAIVSSCVAGIQKTTYVWREPKLCSGGISLPEQRVTICKTIDFWLKVGISAGTCTAILLTVLTCYFWKKNQKLEYKYSKLVMNATLKDCDLPAADSCAIMEGEDVEDDLIFTSKKSLFGKIKSFTSKRTPDGFDSVPLKTSSGGLDMDL
Question: Which “degradation_or_half_life, other: protein level remaining at 2 h” value [1] does the source give for B1 here?
Answer: The value was “decreases”.

Question: And the localisation_or_trafficking [2]?
Answer: Its localisation_or_trafficking is “decreases”.
